Results: paper PMC6363454 (The Journal of Cell Biology, 2019)
Read-outs that look alike come from different tables or passages of the source.

B1: Dam1C/DASH heterodecamer (recombinant) (complex, S. cerevisiae)
chain 1: MSEDKAKLGTTRSATEYRLSIGSAPTSRRSSMGESSSLMKFADQEGLTSSVGEYNENTIQQLLLPKIRELSDSIITLDSNFTRLNFIHESLADLNESLGSLLYGIMSNSWCVEFSQAPHDIQDDLIAIKQLKSLEDEKNNLVMELSNMERGIKRKKDEQGENDLAKASQNKQFNQPLFPSSQVRKYRSYDNRDKRKPSKIGNNLQVENEEDYEDDTSSEASFVLNPTNIGMSKSSQGHVTKTTRLNNNTNSKLRRKSILHTIRNSIASGADLPIENDNVVNLGDLHPNNRISLGSGAARVVNGPVTKNRNSMFSGRAERKPTESRHSVAKKTEKKINTRPPFR
chain 2: MMASTSNDEEKLISTTDKYFIEQRNIVLQEINETMNSILNGLNGLNISLESSIAVGREFQSVSDLWKTLYDGLESLSDEAPIDEQPTLSQSKTK
chain 3: MDSIDEQIAIKRKELQSLQKITSLTDGLKIQLTELNEQIKEMGMNADSVAQLMNNWDSIINNISQASLGLLQYAEGDYEIGPWKDSKKKESEQSNETGLEAQENDKNDEDNDEDEDLVPLPETMVRIRVDGNE
chain 4: MEHNLSPLQQEVLDKYKQLSLDLKALDETIKELNYSQHRQQHSQQETVSPDEILQEMRDIEVKIGLVGTLLKGSVYSLILQRKQEQESLGSNSK
chain 5: MENPHEQVQANILSRIIGNVKRLNESVAILNQELVTINNRNKNLEIMGAICDNYHSSVQFNLEATNNKKPPL
chain 6: MSEQSQLDDSTIDKLIPQIFNEMRSNLNNTTNKFPKSTGGGASDNISANSNSIRSFNSITTQSLLKESESLDKITAMIKNVTAALKNNLPVYVNQVHEVCKSTNSILDSWINIHSQAGYIHKLMSDQTYLKLINDRLHNENVNTNDEDGSTLHNVIALKKKEILDLRQKLENRKGEKDAAPAKPPNQGLNPRYGVQSGRRPVPSAGISNNGRVRKTHVPASKRPSGIPRVTNRWTKPTASSSRKMFR
chain 7: MDSASKEETLEKLDQEITVNLQKIDSNLSFCFHKITQDIIPHVATYSEICERIMDSTEWLGTMFQETGLVNLQANAAAPVGNAPVKSLVSNNVGIFPTSAEEASRQSQTDNGPNEADSAVHVNRDVHSMFNNDSIDDFHTANITSTGQILKLPDSSDEDTGSEAVPSREQTDLTGEGHGGADDEQDESTIQRQSRKRKISLLLQQQYGSSSSMVPSPIVPNKMRKQLAHEEHINNDGDNDDENSNNIESSPLKQGHHHPKGQADDNNEGPDEEESTKEVPKPGTIIHFSTNR
chain 8: MTDALEQSVLALEGTVSVLKDSVESLKCANEPSTNLASTMLQTKRVFRLVPEYDVERSKLDLIEEVEPLVRTLGDKLRKSMGRMQRELDTLQQTYELNDLRLKKNISMDDDDALNSPDMGQEYEGRDADDVVMMASSTNEELEELKKLKEKKKQLENKLEILKQK
chain 9: MGESLDRCIDDINRAVDSMSTLYFKPPGIFHNAILQGASNKASIRKDITRLIKDCNHDEAYLLFKVNPEKQSVSRRDGKEGVFDYVIKRDTDMKRNRRLGRPGEKPIIHVPKEVYLNKDRLDLNNKRRRTATTSGGGLNGFIFDTDLIGSSVISNSSSGTFKALSAVFKDDPQIQRLLYALENGSVLMEEESNNQRRKTIFVEDFPTDLILKVMAEVTDLWPLTEFKQDYDQLYHNYEQLSSKLRFIKKEVLLQDDRLKTMSQYHPSSSHDVAKIIRKEKDEIRRLEMEIANLQE
chain 10: MNANKQRQYNQLAHELRELQTNLQETTKQLDIMSKQCNENLVGQLGKVHGSWLIGSYIYYMEQMLGKTQ
B2: Dam1C/DASH outer kinetochore complex in yeast cells (in vivo) (complex)
chain 1: B1 chain 1
chain 2: B1 chain 2
chain 3: B1 chain 3
chain 4: B1 chain 4
chain 5: B1 chain 5
chain 6: B1 chain 6
chain 7: B1 chain 7
chain 8: B1 chain 8
chain 9: B1 chain 9
chain 10: B1 chain 10

Tests used:
[1] = target: the molecule itself; test: cryo-EM structure
[2] = target: the molecule itself; test: cryo-EM structure; remark: listed apart in the source

| Protein | stoichiometry N [1] | stoichiometry N [2] |
| --- | --- | --- |
| B1 | 17 | – |
| B2 | – | 17 |
